Data published in patent US20240124565A1 (DIADEM S R L, published 2024).
Where no end group is shown, it is not given here.

Target: T1, peptide CRTEEENLRKKGEPHH (SEQ ID NO: 2) conjugated with BSA (human, also: conjugated with BSA by the glutaraldehyde method)
T1 construct: 16-residue immunogen derived from human p53 282-297, with Cys in place of the first Arg; ELISA plates were coated with 'the antigen'; also called the antigen; peptide used as antigen
T1 peptide: CRTEEENLRKKGEPHH
Assay: ELISA, plate coated with the antigen, hybridoma supernatant dilutions
Protocol: The animals' splenocytes were fused with mouse myeloma cells (SP2/O cell line). The fusion products were subjected to screening against the antigen to select the antibody-producing clones. The growth of these clones was continued. This first screening was performed by ELISA methodology. The positive clones were labeled as “parental clones” and frozen after 3 passages. An antigen coating was created onto ELISA plates, and successively the fusion product supernatant was added. The serum of the immunized animals was used as a positive control in ELISA (Example 2).
After the fusion between the splenocytes of the mouse with the best antibody titer and mouse myeloma cells, an ELISA assay was performed to evaluate the fusion products. A coating with the antigen was created in a 96-well ELISA plate and serial dilutions of the supernatant from various clones were added to each well to evaluate their antibody production by spectrophotometric reading. The clones with the highest optical density at 450 nm (OD₄₅₀ₙₘ) were transferred to 24-well plates and after their growth the ELISA assay was repeated, the clones with the highest antibody production were transferred to 6-well plates, grown and tested again by ELISA. The procedure was repeated also for the clones transferred to culture flasks.

B1: 2D3A8 antibody (antibody)
heavy: EVQLQQSGPELVKPGASVKMSCKASGYTFTSYVMHWVKQKPGQGLEWIGYINPYNDGTKYNEKFKGKATLTSDKSSSTAYMELSSLTSEDSAVYYCARGGYYAMDYWGQGTSVTVSSESQSFPNVFPLVSCESPLSDKNLVAMGCLARDFLPSTISFTWNYQNNTEVIQGIRTFPTLRTGGKYLATSQVLLSPKSILEGSDEYLVCKIHYGGKNRDLHVPIPAVAEMNPNVNVFVPPRDGFSGPAPRKSKLICEATNFTPKPITVSWLKDGKLVESGFTTDPVTIENKGSTPQTYKVISTLTISEIDWLNLNVYTCRVDHRGLTFLKNVSSTCAASPSTDILTFTIPPSFADIFLSKSANLTCLVSNLATYETLNISWASQSGEPLETKIKIMESHPNGTFSAKGVASVCVEDWNNRKEFVCTVTHRDLPSPQKKFISKPNEVHKHPPAVYLLPPAREQLNLRESATVTCLVKGFSPADISVQWLQRGQLLPQEKYVTSAPMPEPGAPGFYFTHSILTVTEEEWNSGETYTCVVGHEALPHLVTERTVDKSTGKPTLYNVSLIMSDTGGTCY
light: DIQMTQTTSSLSASLGDRVTISCRASQDISNYLNWYQQKPDGTVKLLIYYTSRLHSGVPSRFSGSGSGTDYSLTISNLEQEDIATYFCQQGNTLPYTFGGGTKLEIKRADAAPTVSIFPPSSEQLTSGGASVVCFLNNFYPKDINVKWKIDGSERQNGVLNSWTDQDSKDSTYSMSSTLTLTKDEYERHNSYTCEATHKTSTSPIVKSFNRNEC
notes: Mouse monoclonal from a hybridoma, purified from the clone's supernatant; also called clone 2D3A8
  binding result: binds
